Test results taken from patent US6548475.

Molecular target: molecules present at the cell surface of both cerebellar neurons and PC12 cells
Assay: cell-based or functional assay

## purified recombinant human KAL protein (isolated from transfected CHO cells, clone CHKAL2-3/dll), coated on plastic (from UniProt P23352 25-680)
  percentage of adherent cells (mouse cerebellar neurons on KAL-coated surface, 90 min): 80%
